The values that follow come from patent US20150118260A1.

Read-outs that look alike come from different tables or passages of the source.

Experiment [1] concerns the target porcine CD80 on the porcine CD80-expressing B-cell lymphoma cell line LCL13271-5E4 (porcine).
The target is the same in experiment [2]. The experiment can be described thus: cell-based or functional assay.
Experiment [3] shares this target. The experiment can be described thus: flow cytometry on LCL13271-5E4 cells, MFI against concentration of biotinylated fusion toxin, non-linear least-squares fit.

With “DT390-pCTLA4-Non-N-Gly-6xHis (single non-N-glycosylated soluble porcine CTLA-4 fusion toxin)”, the Kd in experiment [1] is 2 nM. Also, the protein synthesis inhibition (3H-leucine incorporation) in LCL13271-5E4 cells in experiment [2] turned out to be 0.33.
The substance “DT390-pCTLA-4-Gly-6xHis (single glycosylated soluble porcine CTLA-4 fusion toxin)” displayed a Kd in experiment [3] of 17.3 nM. This substance had a protein synthesis inhibition (3H-leucine incorporation) in LCL13271-5E4 cells in experiment [2] of 0.67.
“DT390-bi-pCTLA-4-Non-N-Gly-6xHis (bi-non-N-glycosylated soluble porcine CTLA-4 fusion toxin)”: the dissociation constant Kd in experiment [1] stood at 4.7 nM.
